For ten molecules, Kd results are on record in US20240317859A1 (published 2024).

As a reminder, the Kd is the equilibrium constant for the complex coming apart.

Assay [1] deals with T1, FcγRIIB/C (CD32b/c) (FcγRIIB) (R&D Systems) (UniProt P31994 46-217).
T1 chain: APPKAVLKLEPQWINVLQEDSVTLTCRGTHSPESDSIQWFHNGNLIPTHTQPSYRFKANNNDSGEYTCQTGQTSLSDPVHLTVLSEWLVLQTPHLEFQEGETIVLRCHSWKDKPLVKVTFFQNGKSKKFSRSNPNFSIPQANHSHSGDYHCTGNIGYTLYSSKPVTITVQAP
As to the kind of experiment: SPR.

The target of assay [2] is Fc gamma RIIIA/CD16a, CF (FcγRIIIA(V158)) (R&D Systems). Description: SPR.
Chain of Fc gamma RIIIA/CD16a, CF (FcγRIIIA(V158)) (R&D Systems) (chain, as listed by the source): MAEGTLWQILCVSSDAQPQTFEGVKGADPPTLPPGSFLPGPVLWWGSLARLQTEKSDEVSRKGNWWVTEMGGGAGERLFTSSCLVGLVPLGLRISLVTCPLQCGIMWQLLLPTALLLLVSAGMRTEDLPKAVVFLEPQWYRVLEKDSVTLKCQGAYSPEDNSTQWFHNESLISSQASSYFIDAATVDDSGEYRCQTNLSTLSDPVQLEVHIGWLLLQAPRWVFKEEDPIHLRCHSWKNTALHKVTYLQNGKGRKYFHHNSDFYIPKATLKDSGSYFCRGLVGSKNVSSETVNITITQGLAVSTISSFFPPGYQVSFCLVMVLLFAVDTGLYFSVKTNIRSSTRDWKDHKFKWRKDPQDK

B1: X2-K HM242-D3 (antibody)
chain 1: QVQLVQSGPEVKKPGASVKVVCKASGYTFTSYYIQWVRQVPGQGLEWMGWIYPGDGTTKYNEKFKGRVTMTIDTSTSTAYMELRSLRSDDTAVYYCASYYGSYFDYWGQGTLVTVSSASTKGPSVFPLAPSSKSTSGGTAALGCLVKDYFPEPVTVSWNSGALTSGVHTFPAVLQSSGLYSLSSVVTVPSSSLGTQTYICNVNHKPSNTKVDKKVEPKSCDKTHTCPPCPAPELLDGPSVFLFPPKPKDTLMISRTPEVTCVVVDVSDEDPEVKFNWYVDGVEVHNAKTKPREEQYNSTYRVVSVLTVLHQDWLNGKEYKCAVSNKALPAPIEKTISKAKGQPREPQVYTLPPSRDELTKNQVSLTCLVKGFYPSDIAVEWESNGQPENNYKTTPPVLDSDGSFFLYSKLTVDKSRWQQGNVFSCSVMHEALHNHYTQKSLSLSPGK
chain 2: not shown
For the molecule B1, the values for the Kd in assay [1] and in assay [2] were 1250 nM and 4270 nM, respectively.

B2: X4-K HM242-D3 (antibody)
chain 1: QVQLVQSGPEVKKPGASVKVVCKASGYTFTSYYIQWVRQVPGQGLEWMGWIYPGDGTTKYNEKFKGRVTMTIDTSTSTAYMELRSLRSDDTAVYYCASYYGSYFDYWGQGTLVTVSSASTKGPSVFPLAPSSKSTSGGTAALGCLVKDYFPEPVTVSWNSGALTSGVHTFPAVLQSSGLYSLSSVVTVPSSSLGTQTYICNVNHKPSNTKVDKKVEPKSCDKTHTCPPCPAPELLGGPDVFLFPPKPKDTLMISRTPEVTCVVVDVSDEDPEVKFNWYVDGVEVHNAKTKPREEQYNSTYRVVSVLTVLHQDWLNGKEYKCAVSNKAYPAPEEKTISKAKGQPREPQVYTLPPSRDELTKNQVSLTCLVKGFYPSDIAVEWESNGQPENNYKTTPPVLDSDGSFFLYSKLTVDKSRWQQGNVFSCSVMHEALHNHYTQKSLSLSPGK
chain 2: not shown
B2: the figures for the dissociation constant Kd in assay [1] and in assay [2] were 957 nM and 244 nM, respectively.

B3: X3-KS HM242-C3 (antibody)
chain 1: QVQLVQSGPEVKKPGASVKVVCKASGYTFTSYYIQWVKQRPGQGLEWIGWIYPGDGTTKYNEKFKGRVTMTIDKSTRTAYMELRSLRSDDTAVYYCASYYGSYFDYWGQGTLVTVSSASTKGPSVFPLAPSSKSTSGGTAALGCLVKDYFPEPVTVSWNSGALTSGVHTFPAVLQSSGLYSLSSVVTVPSSSLGTQTYICNVNHKPSNTKVDKKVEPKSCDKTHTCPPCPAPELLGGPDVFLFPPKPKDTLMISRTPEVTCVVVDVGDEDPEVKFNWYVDGVEVHNAKTKPREEQYNSTYRVVSVLTVLHQDWLNGKEYKCAVSNKALPAPIEKTISKAKGQPREPQVYTLPPSRDELTKNQVSLTCLVKGFYPSDIAVEWESNGQPENNYKTTPPVLDSDGSFFLYSKLTVDKSRWQQGNVFSCSVMHEALHNHYTQKSLSLSPGK
chain 2: not shown
B3 displayed a dissociation constant Kd in assay [1] of 1660 nM.

B4: X3-KS HM242-D3 (antibody)
chain 1: QVQLVQSGPEVKKPGASVKVVCKASGYTFTSYYIQWVRQVPGQGLEWMGWIYPGDGTTKYNEKFKGRVTMTIDTSTSTAYMELRSLRSDDTAVYYCASYYGSYFDYWGQGTLVTVSSASTKGPSVFPLAPSSKSTSGGTAALGCLVKDYFPEPVTVSWNSGALTSGVHTFPAVLQSSGLYSLSSVVTVPSSSLGTQTYICNVNHKPSNTKVDKKVEPKSCDKTHTCPPCPAPELLGGPDVFLFPPKPKDTLMISRTPEVTCVVVDVGDEDPEVKFNWYVDGVEVHNAKTKPREEQYNSTYRVVSVLTVLHQDWLNGKEYKCAVSNKALPAPIEKTISKAKGQPREPQVYTLPPSRDELTKNQVSLTCLVKGFYPSDIAVEWESNGQPENNYKTTPPVLDSDGSFFLYSKLTVDKSRWQQGNVFSCSVMHEALHNHYTQKSLSLSPGK
chain 2: not shown
For the molecule B4, in assay [1], binding was put at a Kd of 2740 nM.

B5: X4-K HM242-C3 (antibody)
chain 1: QVQLVQSGPEVKKPGASVKVVCKASGYTFTSYYIQWVKQRPGQGLEWIGWIYPGDGTTKYNEKFKGRVTMTIDKSTRTAYMELRSLRSDDTAVYYCASYYGSYFDYWGQGTLVTVSSASTKGPSVFPLAPSSKSTSGGTAALGCLVKDYFPEPVTVSWNSGALTSGVHTFPAVLQSSGLYSLSSVVTVPSSSLGTQTYICNVNHKPSNTKVDKKVEPKSCDKTHTCPPCPAPELLGGPDVFLFPPKPKDTLMISRTPEVTCVVVDVSDEDPEVKFNWYVDGVEVHNAKTKPREEQYNSTYRVVSVLTVLHQDWLNGKEYKCAVSNKAYPAPEEKTISKAKGQPREPQVYTLPPSRDELTKNQVSLTCLVKGFYPSDIAVEWESNGQPENNYKTTPPVLDSDGSFFLYSKLTVDKSRWQQGNVFSCSVMHEALHNHYTQKSLSLSPGK
chain 2: not shown
With B5, the dissociation constant Kd in assay [1] turned out to be 606 nM; in assay [2] it was 143 nM.

B6: X2-K HM242-C3 (antibody)
chain 1: QVQLVQSGPEVKKPGASVKVVCKASGYTFTSYYIQWVKQRPGQGLEWIGWIYPGDGTTKYNEKFKGRVTMTIDKSTRTAYMELRSLRSDDTAVYYCASYYGSYFDYWGQGTLVTVSSASTKGPSVFPLAPSSKSTSGGTAALGCLVKDYFPEPVTVSWNSGALTSGVHTFPAVLQSSGLYSLSSVVTVPSSSLGTQTYICNVNHKPSNTKVDKKVEPKSCDKTHTCPPCPAPELLDGPSVFLFPPKPKDTLMISRTPEVTCVVVDVSDEDPEVKFNWYVDGVEVHNAKTKPREEQYNSTYRVVSVLTVLHQDWLNGKEYKCAVSNKALPAPIEKTISKAKGQPREPQVYTLPPSRDELTKNQVSLTCLVKGFYPSDIAVEWESNGQPENNYKTTPPVLDSDGSFFLYSKLTVDKSRWQQGNVFSCSVMHEALHNHYTQKSLSLSPGK
chain 2: not shown
Turning to B6, the affinity in assay [1], expressed as Kd, was 1210 nM.

B7: X4-K HM297-H5 (antibody)
chain 1: QVQLVQSGPEVKKPGASVKIPCKASGYTFTDYNVDWVRQVPGQGLEWMGDIDPNNGGTIYNQKFKDRVTMTVDKSTRTAYMELRSLRSDDTAVYYCARWRGAMDYWGQGTLVTVSSASTKGPSVFPLAPSSKSTSGGTAALGCLVKDYFPEPVTVSWNSGALTSGVHTFPAVLQSSGLYSLSSVVTVPSSSLGTQTYICNVNHKPSNTKVDKKVEPKSCDKTHTCPPCPAPELLGGPDVFLFPPKPKDTLMISRTPEVTCVVVDVSDEDPEVKFNWYVDGVEVHNAKTKPREEQYNSTYRVVSVLTVLHQDWLNGKEYKCAVSNKAYPAPEEKTISKAKGQPREPQVYTLPPSRDELTKNQVSLTCLVKGFYPSDIAVEWESNGQPENNYKTTPPVLDSDGSFFLYSKLTVDKSRWQQGNVFSCSVMHEALHNHYTQKSLSLSPGK
chain 2: DIQMTQSPSSLSASVGDRVTITCRASQDIDNYLKWYQQKPDGTVKLLIYDTSRLHSGVPSRFSGSGSGTDYTLTISSLKQEDFATYYCQQGYTLPWTFGQGTKLEIKRTVAAPSVFIFPPSDEQLKSGTASVVCLLNNFYPREAKVQWKVDNALQSGNSQESVTEQDSKDSTYSLSSTLTLSKADYEKHKVYACEVTHQGLSSPVTKSFNRGEC
B7: the Kd stood at 1250 nM in assay [1] and 3030 nM in assay [2].

B8: X2-K HM297-H5 (antibody)
chain 1: QVQLVQSGPEVKKPGASVKIPCKASGYTFTDYNVDWVRQVPGQGLEWMGDIDPNNGGTIYNQKFKDRVTMTVDKSTRTAYMELRSLRSDDTAVYYCARWRGAMDYWGQGTLVTVSSASTKGPSVFPLAPSSKSTSGGTAALGCLVKDYFPEPVTVSWNSGALTSGVHTFPAVLQSSGLYSLSSVVTVPSSSLGTQTYICNVNHKPSNTKVDKKVEPKSCDKTHTCPPCPAPELLDGPSVFLFPPKPKDTLMISRTPEVTCVVVDVSDEDPEVKFNWYVDGVEVHNAKTKPREEQYNSTYRVVSVLTVLHQDWLNGKEYKCAVSNKALPAPIEKTISKAKGQPREPQVYTLPPSRDELTKNQVSLTCLVKGFYPSDIAVEWESNGQPENNYKTTPPVLDSDGSFFLYSKLTVDKSRWQQGNVFSCSVMHEALHNHYTQKSLSLSPGK
chain 2: DIQMTQSPSSLSASVGDRVTITCRASQDIDNYLKWYQQKPDGTVKLLIYDTSRLHSGVPSRFSGSGSGTDYTLTISSLKQEDFATYYCQQGYTLPWTFGQGTKLEIKRTVAAPSVFIFPPSDEQLKSGTASVVCLLNNFYPREAKVQWKVDNALQSGNSQESVTEQDSKDSTYSLSSTLTLSKADYEKHKVYACEVTHQGLSSPVTKSFNRGEC
On to B8, for which the dissociation constant (Kd) was 1290 nM in assay [1] and 5220 nM in assay [2].

B9: X3-KS HM297-H5 (antibody)
chain 1: QVQLVQSGPEVKKPGASVKIPCKASGYTFTDYNVDWVRQVPGQGLEWMGDIDPNNGGTIYNQKFKDRVTMTVDKSTRTAYMELRSLRSDDTAVYYCARWRGAMDYWGQGTLVTVSSASTKGPSVFPLAPSSKSTSGGTAALGCLVKDYFPEPVTVSWNSGALTSGVHTFPAVLQSSGLYSLSSVVTVPSSSLGTQTYICNVNHKPSNTKVDKKVEPKSCDKTHTCPPCPAPELLGGPDVFLFPPKPKDTLMISRTPEVTCVVVDVGDEDPEVKFNWYVDGVEVHNAKTKPREEQYNSTYRVVSVLTVLHQDWLNGKEYKCAVSNKALPAPIEKTISKAKGQPREPQVYTLPPSRDELTKNQVSLTCLVKGFYPSDIAVEWESNGQPENNYKTTPPVLDSDGSFFLYSKLTVDKSRWQQGNVFSCSVMHEALHNHYTQKSLSLSPGK
chain 2: DIQMTQSPSSLSASVGDRVTITCRASQDIDNYLKWYQQKPDGTVKLLIYDTSRLHSGVPSRFSGSGSGTDYTLTISSLKQEDFATYYCQQGYTLPWTFGQGTKLEIKRTVAAPSVFIFPPSDEQLKSGTASVVCLLNNFYPREAKVQWKVDNALQSGNSQESVTEQDSKDSTYSLSSTLTLSKADYEKHKVYACEVTHQGLSSPVTKSFNRGEC
B9 had a Kd in assay [1] of 1430 nM.

B10: X3-KS HM268-K8 (antibody)
chain 1: QVQLVQSGPEVKKPGASVKVVCKTSGYTFTSYYIQWLKQRPGQGLEWIGWIYFGDASTKYNEKFKGRVTMTADKSTSTAYMELRSLRSDDTAVYYCASYYGSYFDYWGQGTTVTVSSASTKGPSVFPLAPSSKSTSGGTAALGCLVKDYFPEPVTVSWNSGALTSGVHTFPAVLQSSGLYSLSSVVTVPSSSLGTQTYICNVNHKPSNTKVDKKVEPKSCDKTHTCPPCPAPELLGGPDVFLFPPKPKDTLMISRTPEVTCVVVDVGDEDPEVKFNWYVDGVEVHNAKTKPREEQYNSTYRVVSVLTVLHQDWLNGKEYKCAVSNKALPAPIEKTISKAKGQPREPQVYTLPPSRDELTKNQVSLTCLVKGFYPSDIAVEWESNGQPENNYKTTPPVLDSDGSFFLYSKLTVDKSRWQQGNVFSCSVMHEALHNHYTQKSLSLSPGK
chain 2: DIQMTQSPSSLSASVGDRVTITCRASQDISNYLNWYQQKPDGTVKLLIYSTSRLHSGVPSRFSGSGSGTDYTLTISSLQPEDFATYYCQQGSTLPFTFGQGTKLEIKRTVAAPSVFIFPPSDEQLKSGTASVVCLLNNFYPREAKVQWKVDNALQSGNSQESVTEQDSKDSTYSLSSTLTLSKADYEKHKVYACEVTHQGLSSPVTKSFNRGEC
On to B10, for which the affinity in assay [1], expressed as Kd, was 2540 nM.
